This series deals with T1, mTLR9-cECD (C-terminal proteolytic fragment of TLR9 ectodomain) (Mus musculus, UniProt Q9EQU3 474-824).
T1 sequence: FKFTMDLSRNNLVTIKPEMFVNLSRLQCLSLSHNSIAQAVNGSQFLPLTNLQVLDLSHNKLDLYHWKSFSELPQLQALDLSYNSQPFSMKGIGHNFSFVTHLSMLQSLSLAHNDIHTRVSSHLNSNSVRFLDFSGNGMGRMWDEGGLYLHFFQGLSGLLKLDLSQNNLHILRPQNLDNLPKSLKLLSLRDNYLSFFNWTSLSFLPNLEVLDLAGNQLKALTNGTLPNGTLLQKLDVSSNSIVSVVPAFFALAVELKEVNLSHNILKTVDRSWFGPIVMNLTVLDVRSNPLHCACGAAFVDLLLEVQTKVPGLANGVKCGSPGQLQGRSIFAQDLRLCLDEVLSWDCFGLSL
In words: fluorescence anisotropy; 20 mM MES pH 5.6, 100 mM NaCl, 2 mM beta-mercaptoethanol, 25 C, 0.2 uM labelled R:D60, protein 10 nM-3.0 uM, 10 min equilibration.

One may read the Kd as the equilibrium constant for the complex coming apart.

B1: R:D60 (Cy3) (DNA:RNA)
RNA: GUGUGUGUGUGUGUGUGUGUGUGUGUGUGUGUGUGUGUGUGUGUGUGUGUGUGUGUGUGU
?: ACACACACACACACACACACACACACACACACACACACACACACACACACACACACACAC
The molecule B1 showed a dissociation constant Kd of 27.2 nM.

B2: Cy5-ssDNA60 (ssDNA)
DNA: B1 ?
In turn, B2 gave a dissociation constant Kd of 142 nM.

B3: Cy3-ssRNA60 (ssRNA)
RNA: B1 RNA
With B3, the Kd is 1080 nM.

Values taken from publication PMC3989650.
